# Measured values: US20240366624A1, “METHODS AND COMPOSITIONS FOR TREATING THROMBOTIC DISEASE” (Washington University, priority 2023, published 2024)
# B1: mutant STIM1: STIM1 with Cys49 and Cys56 mutated to Ser (protein)
# chain: LSHSHSEKATGTSSGANSEESTAAEFSRIDKPLSHSEDEKLSFEAVRNIHKLMDDDANGDVDVEESDEFLREDLNYHDPTVKHSTFHGEDKLISVEDLWKAWKSSEVYNWTVDEVVQWLITYVELPQYEETFRKLQLSGHAMPRLAVTNTTMTGTVLKMTDRSHRQKLQLKALDTVLFGPPLLTRHNHLKD
# Biological target: T1, ERO1α (Homo sapiens, UniProt Q96HE7)
# T1 sequence (Q96HE7 24-468): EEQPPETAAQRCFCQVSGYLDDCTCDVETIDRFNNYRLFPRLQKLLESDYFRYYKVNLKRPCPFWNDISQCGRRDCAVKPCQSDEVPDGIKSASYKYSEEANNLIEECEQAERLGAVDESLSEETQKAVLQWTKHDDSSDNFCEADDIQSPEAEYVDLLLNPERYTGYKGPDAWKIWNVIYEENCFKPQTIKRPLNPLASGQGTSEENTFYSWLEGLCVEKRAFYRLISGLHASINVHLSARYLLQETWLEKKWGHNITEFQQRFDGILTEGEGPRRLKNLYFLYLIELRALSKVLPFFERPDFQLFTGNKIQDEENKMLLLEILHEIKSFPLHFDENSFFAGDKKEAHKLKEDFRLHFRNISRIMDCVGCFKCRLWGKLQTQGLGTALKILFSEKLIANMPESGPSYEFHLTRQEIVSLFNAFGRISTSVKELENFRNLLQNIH
# Assay: Bio-layer interferometry, STIM1 on biotinylated ERO1α biosensor
# Assay type: binding
# Procedure: FIG. 11(A-Q) is an exemplary embodiment of ERO1α (endoplasmic reticulum oxidoreductase 1α) regulating the function of Ca^2+ signaling molecules, STIM1 (stromal interaction molecule 1) and SERCA2 (sarco/endoplasmic reticulum Ca^2+ ATPase 2), and enhancing cytosolic Ca^2+ levels during platelet activation in accordance with the present disclosure. FIG. 11A: Mass spectrometric analysis was performed to identify proteins interacting with ERO1α in resting and thrombin-activated human platelets. […] FIG. 11B and FIG. 11C: Immunoprecipitation of ERO1α with lysates of resting and thrombin (Thr)-activated human platelets, followed by immunoblotting and densitometry. FIG. 11(D-F): Ca^2+ release and influx of wild type (WT) and Ero1α-null platelets were assessed in response to 0.1 U/mL thrombin, 2 μM A23187, or 20 μM thapsigargin (TG), followed by the addition of 1 mM CaCl2. The Ca^2+ signal was quantified by the area under the curve (AUC). […] After incubation with a different concentration of wtSTIM1 and mutant STIM1 (mSTIM1), the specific interaction between ERO1α and STIM1 was measured by subtracting the nonspecific binding. The dissociation constant, KD, was calculated from the Kon and Koff values. […] Please note that the unmodified peptide was not detected. […] P values determined by unpaired Student t test. […]
molecule,measurement,value
B1,"KD, ERO1α binding to STIM1",minimal and not concentration dependent
